The results in this text go back to US20150183864A1 (KOREA ADVANCED INSTITUTE OF SCIENCE AND TECHNOLOGY KAIST, published 2015).

As usually defined, the Kd is the constant that tells how readily two partners part at equilibrium. Low values mean tighter binding, high ones weaker binding.

Assay [1] addresses VEGF-A165 (produced from CHO cell) (UniProt P15692). Briefly: SPR, BIAcore 3000, VEGF-A immobilized on CM5 chip. (In general: Surface plasmon resonance follows binding to a sensor surface in real time, without labels.)
The target in assay [2] is T1, TNFR2-Fc (also known as Etarnercept, U.S. Pat. No. 5,447,851) (human, UniProt P20333 23-257).
T1 construct: range 23-257; The ELISAs and photograph assays name TNFR2-Fc; the SPR and MTT assays name ENBREL®; also called TNFR2-Fc (1-257); ENBREL®; not shown: Fc of human IgG
T1 sequence (looked up): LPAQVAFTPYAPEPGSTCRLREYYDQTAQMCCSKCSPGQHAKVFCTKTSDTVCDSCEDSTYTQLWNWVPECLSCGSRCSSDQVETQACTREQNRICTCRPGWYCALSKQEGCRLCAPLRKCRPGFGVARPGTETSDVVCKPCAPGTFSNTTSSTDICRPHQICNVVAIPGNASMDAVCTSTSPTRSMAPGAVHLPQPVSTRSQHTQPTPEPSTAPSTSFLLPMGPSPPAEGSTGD
Briefly: ELISA, VEGF-A coated on the plate, Fc fusion protein 0.01-10 nM, detection with anti-human Fc-HRP, OD 415. The protocol:
After washing the plate 3 times with each 400 μl of PBS, a blocking was performed with the blocking solution (1% BSA in 100 μl PBS) at 37° C. for 2 hour. […] After washing the plate 3 times with each 400 μl of PBS, 50 μl of 3,3′,5,5′-tetramethylbenzidine (TMB) solution (Sigma-Aldrich T0440) was added into the plate, and were incubated at room temperature for 10 min.
(In general: An ELISA detects its analyte on a solid surface through an enzyme-linked reagent.)

In turn, VEGF-Trap (Fc fusion) had a Kd in assay [1] of 1.35 pM. This lies in the picomolar range.

B1: VEGF-A165 (produced from CHO cell) (ligand, UniProt P15692-4 27-191, looked up)
chain: APMAEGGGQNHHEVVKFMDVYQRSYCHPIETLVDIFQEYPDEIEYIFKPSCVPLMRCGGCCNDEGLECVPTEESNITMQIMRIKPHQGQHIGEMSFLQHNKCECRPKKDRARQENPCGPCSERRKHLFVQDPQTCKCSCKNTDSRCKARQLELNERTCRCDKPRR
Consider B1, for which the binding result in assay [2] was “no binding (tested: 10 nM)”.
